Experimental data reported in patent publication US20250361284A1, “TRANSPOSASE FUSION PROTEINS FOR USE IN CELL AND GENE THERAPY” (JULIUS-MAXIMILIANS-UNIVERSITÄT WÜRZBURG, priority 2022, published 2025).

What was measured:
Format in all cases: cell-based, human
HeLa cells = assay: Transposition assay (G-418-resistant colonies) in HeLa cells; details: presence of TMP
From the text: (2D) Transposition assay for evaluating the activity of dd-SB100X fusion-transposase. HeLa cells were transfected with neomycin-marked transposon plasmid and construct expressing wild type SB transposase (SB100X) or fusion-transposase (dd-SB100X), and selected for transposition events by antibiotic selection with G-418. Data representing the number of G-418-resistant colonies are shown on the right.
An transposon donor vector with neomycin resistance gene was generated de novo in house using Gibson assembly. In order to test the activity (in terms of integration capability) of the fusion-transposase (dd-SB100X) transposition assay was performed in HeLa cells as per the published protocol (Ivics et al., 1997). Briefly, ˜150,000 HeLa cells were seeded into each well of a 6-well plate a day before transfection. […] After 10 days of selection, cells were washed with PBS, fixed with tissue culture fixing solution, stained with methylene blue and counted.
We next examined the activity of the fusion-transposase (dd-SB100X) by standard transposition assay wherein we transfected HeLa cells with a SB transposon donor plasmid encoding a neomycin resistance gene, together with plasmid encoding SB100X as a positive control, or the fusion-transposase protein. […] After 10 days, colonies were fixed, stained and counted to determine the integration events achieved under each of the experimental conditions.

CD4+ T cells = assay: CAR gene transfer (EGFRt flow cytometry) in CD4+ T cells, dd-SB100X vs wild type SB100X plasmid; details: day 7
Method: (4A) CAR gene transfer in CD4+ T cells using dd-SB100X fusion-transposase vs. wild type SB100X transposase. CD3/CD28 activated CD4+ T cells were nucleofected with CD19-CAR_EGFRt SB transposon minicircle DNA and plasmid encoding either the fusion-transposase (pdd-SB100X/dd-SB100X) or the wild type SB transposase (pSB100X/SB100X). At 7 days post-nucleofection, flow cytometric analysis was performed to determine the percentage of T cells that express the EGFRt reporter. Top panel: Dot plots show EGFRt expression on day 7 post-nucleofection.
(§1) Anonymous healthy donor blood samples were received upon written consent to participate in research protocols approved by the Institutional Review Board of the Universitätsklinikum Würzburg (UKW). Blood samples were processed for T cells isolation as published earlier (Querques et al., 2019). Briefly, Peripheral blood mononuclear cells (PBMCs) were isolated by density centrifugation with Biocoll separating solution (Biochrom). Both CD4+ and CD8+ T cells were sorted by negative isolation approach using microbeads and magnetic associated cell sorting (MACS, Miltenyi) methods as described by the manufacturer. The isolated CD4+ and CD8+ T cells were cultured in T cell medium (RPMI-1640 with 10% (vol/vol) human serum, 2 mM L-glutamine, 100 U ml-1 penicillin-streptomycin) containing IL-2 (50 units per mL) and activated by anti-CD3/CD28 bead stimulation (Thermo Fisher). Two days post-activation, approximately 2 million T cells were nucleofected with vectors (1 μg of CD19 CAR (EGFRt)-encoding transposon as plasmid or minicircle DNA; 1 μg of mRNA encoding SB transposase) or 10 μg of hsSB protein (Querques et al., 2019) using a 4D Nucleofector (Lonza) as per the manufacturer's instructions. […]
We next investigated if the dd-SB100X fusion-transposase retained transposition activity in primary human T cells. […] We observed differences in CD19-CAR_EGFRt expression, as evidenced by mean fluorescence intensity (MFI) of EGFRt by flow cytometry.

CD19 CAR T cells = assay: Transposon (CAR) copy number analysis by ddPCR in CAR T cells; details: plasmid-encoded transposase, EGFRt-enriched CAR T cells
Method: (4C) CAR Copy number analysis of CD8+ CD19 CAR T cells engineered with dd-SB100X fusion transposase. The number of integrations per genome was analyzed by ddPCR. Data shown are mean values of three biological replicates measured in technical triplicates and shown ±S.E.M. The data was analyzed using unpaired, two-tailed Student's T-test and differences were statistically significant (*, p=0.0274).
(6D) Transposon copy number analysis in EGFRt+ CD8+ T cells that were nucleofected with CD19-CAR_EGFRt SB transposon minicircle DNA and mRNA encoding either the wild type SB transposase (SB100X) or the fusion-transposase (dd-SB100X) assessed by digital droplet PCR.
Genomic DNA (gDNA) of CAR-positive T cells was isolated using dPureLink gDNA Mini Kit (Invitrogen, California, USA). Droplet digital PCR (ddPCR) was set up and analyzed in technical triplicates. Each ddPCR reaction contained ready-to-use ddPCR Supermix for Probes No dUTP (Bio-Rad, California, USA), 20 ng of the respective fragmented gDNA, 0.2 μL of CviQl (10 000 U/mL) (NEB, Frankfurt am Main, Germany), 0.1 μL of Dpnl (20,000 U/mL) (NEB, Frankfurt am Main, Germany), 200 nM of each respective ddPCR FAM/HEX probe, and 600 nM of each respective forward and reverse primer in a final volume of 25 μL. CviQl was used to fragment the gDNA to ensure single-copies per droplet. DPNI was used to specifically digest non-integrated vectors. […]

K562/CD19 target cells = assay: Antigen specific proliferation (CFSE dye dilution) of CD19 CAR T cells; details: 72 hours, stimulation with K562/CD19 target cells
Method: (4E) Antigen specific proliferation by CD4+ CD19 CAR T cells engineered with dd-SB100X fusion transposase. Proliferation of CD4+ CAR T cells was examined by CFSE dye dilution after 72 hours of co-culture with K562/CD19 or K562 target cells. For analysis, triplicate wells were pooled and the proliferation of viable 7-AAD-negative T cells was analyzed. The division index (average number of cell divisions) was calculated using FlowJo software. Data shown are mean values ±s.d. of one representative experiment.
as §1, with “Fisher).” for “Fisher). Two days post-activation, approximately 2 million T cells were nucleofected with vectors (1 μg of CD19 CAR (EGFRt)-encoding transposon as plasmid or minicircle DNA; 1 μg of mRNA encoding SB transposase) or 10 μg of hsSB protein (Querques et al., 2019) using a 4D Nucleofector (Lonza) as per the manufacturer's instructions.”

CD8+ T cells = assay: Gene transfer in CD8+ T cells with TMP priming before nucleofection; details: day 7
Method: CD8+ T cells were isolated from healthy donor PBMC and activated with CD3/CD28 bead stimulation. […] Cells were nucleofected with CD19-CAR_EGFRt SB transposon minicircle DNA and plasmid encoding either the wild type SB transposase (SB100X) or the fusion-transposase (dd-SB100X). […] At 7 days post-nucleofection, flow cytometric analysis was performed to determine the percentage of T cells that expresses the EGFRt reporter. Top panel: Dot plots show EGFRt expression on day 7 post-nucleofection.
as §1, with “instructions. CD19 CAR-modified (i.e., EGFRt+) T cells were enriched using biotin-conjugated anti-EGFR monoclonal antibody and anti-biotin beads (Miltenyi) as per the manufacturer's instructions.” for “instructions.”

B1: dd-SB100X: ecDHFR destabilizing domain fused via linker to N-terminus of SB100X transposase; SEQ ID NO: 2 (protein)
chain: MISLIAALAVDYVIGMENAMPWNLPADLAWFKRNTLNKPVIMGRHTWESIGRPLPGRKNIILSSQPSTDDRVTWVKSVDEAIAACGDVPEIMVIGGGRVIEQFLPKAQKLYLTHIDAEVEGDTHFPDYEPDDWESVFSEFHDADAQNSHSYCFEILERKLGGGAPAVGGGPKMGKSKEISQDLRKRIVDLHKSGSSLGAISKRLAVPRSSVQTIVRKYKHHGTTQPSYRSGRRRVLSPRDERTLVRKVQINPRTTAKDLVKMLEETGTKVSISTVKRVLYRHNLKGHSARKKPLLQNRHKKARLRFATAHGDKDRTFWRNVLWSDETKIELFGHNDHRYVWRKKGEACKPKNTIPTVKHGGGSIMLWGCFAAGGTGALHKIDGIMDAVQYVDILKQHLKTSVRKLKLGRKWVFQHDNDPKHTSKVVAKWLKDNKVKVLEWPSQSPDLNPIENLWAELKKRVRARRPTNLTQLHQLCQEEWAKIHPNYCGKLVEGYPKRLTQVKQFKGNATKY
modifications: misc_feature 1..1539 ecDHFR-SB100X
- transposition activity (HeLa cells): active and mediated transposition activity
- transposition activity compared to wild type SB100X (HeLa cells): reduced transposition activity
- gene transfer rate (EGFRt+ T cells) (CD4+ T cells; cultured in absence of TMP after nucleofection): ~6.6%
- gene transfer rate (EGFRt+ T cells) (CD4+ T cells; dd-SB100X cultured in presence of TMP after nucleofection, SB100X wild type control): ~18%
- MFI of EGFRt compared to wild type SB100X (CD4+ T cells; presence of TMP): lower MFI
- transposon copies per genome (average) (CD19 CAR T cells): 2.99 copies per genome
- proliferation (cell divisions) (K562/CD19 target cells): > 3 cell divisions
- MFI of EGFRt expression compared to wild type SB100X (CD8+ T cells): lower MFI
- gene transfer (EGFRt+ T cells) (CD8+ T cells; not primed with TMP): ~26.1%
- gene transfer (EGFRt+ T cells) (CD8+ T cells; primed with TMP 1000 nM for 24 hours before nucleofection): ~29.7%
